Data reported in patent US20030170203A1 (Human Genome Sciences, published 2003).

Experiments:
Assay in all cases: flow cytometry on transiently transfected cells
[1] = molecular target: T1, HveA on transiently transfected cells (UniProt Q92956 39-283, limits assumed)
T1 construct: whole, on cells
T1 sequence (looked up): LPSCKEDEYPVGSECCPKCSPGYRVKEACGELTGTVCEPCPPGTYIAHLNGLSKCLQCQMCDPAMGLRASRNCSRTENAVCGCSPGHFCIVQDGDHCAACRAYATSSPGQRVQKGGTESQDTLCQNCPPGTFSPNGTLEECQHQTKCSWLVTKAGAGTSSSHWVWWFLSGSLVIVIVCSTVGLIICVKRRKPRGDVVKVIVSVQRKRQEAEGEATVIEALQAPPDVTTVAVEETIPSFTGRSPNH
Description: (§1) One million cells, in 0.1 ml of FACS buffer (PBS, 0.1% BSA, 0.1% NaN₃), were incubated with 0.1-1 microgram of protein or antibody at RT for 15 min. The cells were washed with 3 ml of FACS buffer, reacted with biotinylated primary antibody, and stained with PE-conjugated secondary antibody at RT for 15 min. Cells were then washed again, resuspended in 0.5 microgram/ml of propidium iodide, and live cells were gated and analyzed on a FACScan using the CellQuest software (BD Biosciences).

[2] = molecular target: T2, CD27 on transiently transfected cells (UniProt P26842 20-260, limits assumed)
T2 construct: whole, on cells
T2 sequence (looked up): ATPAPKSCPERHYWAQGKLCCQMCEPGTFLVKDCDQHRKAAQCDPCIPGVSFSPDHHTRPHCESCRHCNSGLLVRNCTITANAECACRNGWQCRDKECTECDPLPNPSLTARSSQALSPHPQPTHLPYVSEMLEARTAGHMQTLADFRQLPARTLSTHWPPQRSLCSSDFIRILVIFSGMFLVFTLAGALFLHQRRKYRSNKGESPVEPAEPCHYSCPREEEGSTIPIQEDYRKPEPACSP
Description: as §1

[3] = molecular target: T3, BCMA on transiently transfected cells (UniProt Q02223 1-184, limits assumed)
T3 construct: whole, on cells
T3 sequence (looked up): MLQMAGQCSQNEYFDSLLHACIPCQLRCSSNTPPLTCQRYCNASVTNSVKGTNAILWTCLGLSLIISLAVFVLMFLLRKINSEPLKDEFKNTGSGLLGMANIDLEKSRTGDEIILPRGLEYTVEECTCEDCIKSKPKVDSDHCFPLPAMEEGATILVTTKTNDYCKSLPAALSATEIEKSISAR
Description: as §1

[4] = molecular target: T4, DcR1 on transiently transfected cells (UniProt O14798 26-236, limits assumed)
T4 construct: whole, on cells
T4 sequence (looked up): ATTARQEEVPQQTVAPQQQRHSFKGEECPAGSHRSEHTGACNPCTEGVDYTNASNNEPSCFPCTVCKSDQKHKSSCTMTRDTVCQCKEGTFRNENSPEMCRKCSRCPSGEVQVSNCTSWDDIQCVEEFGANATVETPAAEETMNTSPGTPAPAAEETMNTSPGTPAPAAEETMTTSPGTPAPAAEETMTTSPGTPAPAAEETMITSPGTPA
Description: as §1

[5] = molecular target: T5, DR6 on transiently transfected cells (UniProt O75509 42-655, limits assumed)
T5 construct: whole, on cells
T5 sequence (looked up): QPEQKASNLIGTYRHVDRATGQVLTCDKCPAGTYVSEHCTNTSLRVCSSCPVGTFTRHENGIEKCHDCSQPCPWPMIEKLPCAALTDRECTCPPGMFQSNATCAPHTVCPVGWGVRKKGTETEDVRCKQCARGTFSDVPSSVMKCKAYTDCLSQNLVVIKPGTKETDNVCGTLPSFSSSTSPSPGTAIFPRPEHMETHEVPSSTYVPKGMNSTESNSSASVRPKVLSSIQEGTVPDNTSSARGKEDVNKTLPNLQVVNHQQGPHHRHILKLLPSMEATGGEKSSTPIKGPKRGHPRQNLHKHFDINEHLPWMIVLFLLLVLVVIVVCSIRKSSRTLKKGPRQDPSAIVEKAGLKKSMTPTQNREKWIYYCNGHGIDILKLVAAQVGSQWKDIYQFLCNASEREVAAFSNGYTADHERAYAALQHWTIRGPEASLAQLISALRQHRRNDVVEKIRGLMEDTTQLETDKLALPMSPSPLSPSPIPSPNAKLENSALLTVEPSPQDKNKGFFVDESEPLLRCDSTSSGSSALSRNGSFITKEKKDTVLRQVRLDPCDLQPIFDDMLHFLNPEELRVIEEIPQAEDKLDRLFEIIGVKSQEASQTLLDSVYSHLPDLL
Description: as §1

[6] = molecular target: T6, LTβR on transiently transfected cells (UniProt P36941 31-435, limits assumed)
T6 construct: whole, on cells
T6 sequence (P36941 31-435 limits assumed): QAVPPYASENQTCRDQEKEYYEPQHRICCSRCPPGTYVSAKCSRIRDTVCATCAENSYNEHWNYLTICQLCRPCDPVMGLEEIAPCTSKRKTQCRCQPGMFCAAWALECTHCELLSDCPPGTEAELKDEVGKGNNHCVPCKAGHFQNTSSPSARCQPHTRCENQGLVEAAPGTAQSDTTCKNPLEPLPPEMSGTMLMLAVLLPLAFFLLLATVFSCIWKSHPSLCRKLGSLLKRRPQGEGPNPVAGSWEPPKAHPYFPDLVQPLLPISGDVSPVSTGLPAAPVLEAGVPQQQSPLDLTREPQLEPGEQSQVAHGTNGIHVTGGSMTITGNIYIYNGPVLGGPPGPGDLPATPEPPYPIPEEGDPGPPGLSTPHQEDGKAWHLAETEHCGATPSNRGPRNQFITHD
Description: as §1

[7] = molecular target: T7, AITR on transiently transfected cells (UniProt Q9Y5U5 26-241, limits assumed)
T7 construct: whole, on cells
T7 sequence (looked up): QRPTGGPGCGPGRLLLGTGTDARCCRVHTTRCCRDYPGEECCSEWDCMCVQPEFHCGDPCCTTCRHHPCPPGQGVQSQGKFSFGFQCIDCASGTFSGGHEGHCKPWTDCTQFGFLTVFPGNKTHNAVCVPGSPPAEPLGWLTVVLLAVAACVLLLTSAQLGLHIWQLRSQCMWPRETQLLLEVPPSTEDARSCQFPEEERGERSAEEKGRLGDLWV
Description: as §1

Measured: binding result

B1: FLAG-tagged soluble form of TNF-gamma-beta (aa 72-251) (ligand, human, UniProt O95150 72-251, looked up)
chain: LKGQEFAPSHQQVYAPLRADGDKPRAHLTVVRQTPTQHFKNQFPALHWEHELGLAFTKNRMNYTNKFLLIPESGDYFIYSQVTFRGMTSECSEIRQAGRPNKPDSITVVITKVTDSYPEPTQLLMGTKSVCEVGSNWFQPIYLGAMFSLQEGDKLMVNVSDISLVDYTKEDKTFFGAFLL
notes: also called FLAG-TL1β; FLAG-TNF-gamma-beta; not shown: FLAG tag of vector pFLAGCMV1
no binding: [1] | [2] | [3] | [4] | [5] | [6] | [7]
